Assay results from patent US20110189172A1.

Molecular target: IL-1 receptor (human) (UniProt P14778)
Assay: cell-based or functional assay

Sequence of UniProt P14778 (P14778 18-569): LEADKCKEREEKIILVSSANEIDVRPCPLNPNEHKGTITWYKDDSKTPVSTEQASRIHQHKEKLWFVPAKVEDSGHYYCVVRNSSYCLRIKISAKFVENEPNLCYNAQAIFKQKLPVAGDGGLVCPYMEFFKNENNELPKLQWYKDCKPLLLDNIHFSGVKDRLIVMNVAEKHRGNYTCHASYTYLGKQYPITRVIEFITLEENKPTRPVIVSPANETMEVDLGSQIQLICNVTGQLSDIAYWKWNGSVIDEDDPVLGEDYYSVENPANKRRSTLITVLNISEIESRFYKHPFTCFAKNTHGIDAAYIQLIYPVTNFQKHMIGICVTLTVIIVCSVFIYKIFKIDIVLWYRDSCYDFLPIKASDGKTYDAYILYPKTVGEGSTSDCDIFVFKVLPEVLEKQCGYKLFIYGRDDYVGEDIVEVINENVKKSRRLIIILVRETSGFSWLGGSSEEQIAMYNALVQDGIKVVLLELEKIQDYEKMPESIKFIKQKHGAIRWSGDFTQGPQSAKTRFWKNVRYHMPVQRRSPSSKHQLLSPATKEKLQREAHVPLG

IC50 (pM), inhibition of IL-1β induced IL-8 production in human whole blood: 53.4 pM
Substance: Kineret® (anakinra), recombinant IL-1 receptor antagonist (IL-1Ra) (from UniProt P18510 26-177) (ligand)
